{"source": "the DeepSol protein solubility set", "data": [{"assay": "soluble on expression in E. coli; label from the status in PepcDB or PDB records", "values": [{"sequence": "SCEGPSRISGPIPPDPTLCPDNYRRPTSAQGRLEGNALKLDLLTSDRALDTTAPRGPCIGPGAGEILERGQRGVGDVLLQLEGISLGPGASLKRKDPKDHEKENLRRIREIQKRFREQERSREQGQPRPLKALWRSPKYDKVESRVKAQLQEPGPASGTESAHFLRAHSRCGPGLPPPHVSSPQPTPPGPEAKEPGLGVDFIRHNARAAKRAPRRHSCSLQVLAQVLEQQRQAQEHYNATQKGHVPHYLLERRDLWRREAEARKQSQPDPAMPPGHTRMPENQRLETLTKLLQSQSQLLRELVLLPAGADSLRAQSHRAELDRKLVQVEEAIKIFSRPKVFVKMDD", "soluble on expression in E. coli": "soluble"}, {"sequence": "MPMKDVLSRIGIGSATVDTVLPTDSVRAGESVRAEVHVEGGSTDQNIDSVYFALETEYKSDEGYKDAIIDQWQLTEPFTIEAGEKRRFETTIDIPRETPVTTRSTAVEIETGLDISMAVDPGDEDYIEVEPTHRTQAVFDALDSLGFSLHASACEAAAGSLFTTSANFAQEFEFRPQRGEFTGAVDEVEIVPVFDDDRLTVYLEVDRSAGLLSEVTDADERHTKLTIEAPDPDAIEPRLAEAIRELS", "soluble on expression in E. coli": "not soluble"}, {"sequence": "MRTQFINEQTMMIYFENEISESTFKKVQQTIQYIKSKNLSEITNMIPSYRAILIYFDNSGINGTELLENLELDENSNSRKQSHFKQRIIHIPVLYGGDFGPDLSEVANVNKLSQEEVIQIHTQQPYLIYMLGFMPGFPYLGGLDAKLHTPRRSEPRIKINAGSVGIANNQTGLYPMDSPGGWQIIGRTPIKVFDLNRTPMTLYEAGDYIQFYSINYQEFEKISNDINKGKFDIDKWVTYQDEYLEHHHHHH", "soluble on expression in E. coli": "not soluble"}, {"sequence": "MTDIETIYKKLSHVISKEDFLQRIQEKVENMGGLCDETMAAMLVANELGFSDAGRDSIKIENITPESGPVNFIARIISVFDTKEFTRNDGTIGRVGNLIVGDETGKVKLTLWDNMADLIKMGKIKAGQSVQVSGFAKQGYSGVEVNIGNNGVLTESEEEIDVVSNSYKIKDIKDGMGDINLNGKVLEVSEIRTFQRKDGNSGRVGNLMLGDETGTLRVTLWDDKTDFLSQVEYGDSIELINAYARENAFSQKVELQVGNRSIIRKSEKKIEYEEEFTPIDDIKADMNNINISGRILDISEVRTFEKKDGSTGRVGNVLLGDSTGKIRLTLWDEKTDILEEIDFDETVEVLNAYSRENTFSQQVELNLGARGIIQRSEKKVEYREKFTDIADIIPGESYSIQGKVAEIGELREFEKEDGTENVVANLQLKDDTGSIRLTLWGEQAYVIEDLDIDSEIQIIDAYARYGLNEEIELSVGNRSRVIILLEHHHHHH", "soluble on expression in E. coli": "soluble"}, {"sequence": "MGSDKIHHHHHHMDAILMSLMTALNEHLLINVYQRDTDDFYTGYVQVLGHDAVVLGTYNDSGIADGCALIAFSAIDQVEFAGDDLDSMNFRINLAQAQHFLTLQGQEKPLQFDATQNLIQQLATQAKANGQMVMVVVADDDAYLEGQVTAVAEDRFSMAIFNKFNYTDVRALQVDFSDILVMEFHGLDLKLETELVWQRDHLKHVATKLYQNDGQLAGVFQNALANNRLISVVPKGPEDQFFVGRVKAVNDRVVVLSLKDMAGQFGGYILLTLPSIQNVATASDYLQTISFYEKWDQTHHFSQQPVLNADREFDPNDDLIRTIISEAAGFERVVRIKVADSDEHFLGYPENVGETDFDLNLVGPDDGETAQIRYGQIREIAFGHIFAYLQEAQLKNAGR", "soluble on expression in E. coli": "not soluble"}, {"sequence": "SAESWLRLSGAGPAEEAGPEGGLEEPDALDDSLTSLQWLQEFSILNAKAPALPPGGTDPHGYHQVPGSAAPGSPLAADPACLGQPHTPGKPTSSCTSRSAPPGLQAPPPDDVDYATNPHVKPPYSYATLICMAMQASKATKITLSAIYKWITDNFCYFRHADPTWQNSIRHNLSLNKCFIKVPREKDEPGKGGFWRIDPQYAERLLSGAFKKRRLPPVHIHPAFARQAAQEPSAVPRAGPLTVNTEAQQLLREFEEATGEAGWGAGEGRLGHKRKQPLPKRVAKVPRPPSTLLPTPEEQGELEPLKGNFDWEAIFDAGTLGGELGALEALELSPPLSPASHVDVDLTIHGRHIDCPATWGPSVEQAADSLDFDETFLATSFLQHPWDESGSGCLPPEPLFEAGDATLASDLQDWASVGAFL", "soluble on expression in E. coli": "soluble"}, {"sequence": "MDEYQQTIRALSDRIVVAQTPIRILDAVKWDDTVRKNFLAAKGKALPAVDRAYYENRPLGFDSVALKQEFQNIERDVTRQLGQFNPVGQIMRRMCREYRMVVRMLEARGTPDFGLISQELYGAASDAFHAGDPTLADLGLMLSDYLNNIAGRGDLKDEPKILTAKDAVSLLQSRLNRVFGEAEETIRVFESDGIVADAAAGADYIKIRTDAMFNERDVRALEVHEGLVHVGTTLNGQNQPICTFLSKGPPSSTVTQEGLAILMEVIAFASYPSRLRKLTNRTRAIHMAEQGADFLQVFEFYREQGFGMSESYGNASRVFRGSVPDGLPFTKDLSYLKGFIMVYNYIQLAVRKGKLEQVPLLFCGKTTLEDMRTLRQLVDEGLVVAPKYLPEQFRDMNALSAWMCFSNFLNHLSLDRIEADYSNILLEHHHHHH", "soluble on expression in E. coli": "soluble"}, {"sequence": "MPSCDPGPAPACLPTKTFRSYLPRCHRTYSCVHCRAHLAKHDELISKSFQGSHGRAYLFNSVVNVGCGPAEQRLLLTGLHSVADIFCESCKTTLGWKYEQAFETSQKYKEGKYIIEMSHMVKDNGWD", "soluble on expression in E. coli": "soluble"}, {"sequence": "SLRLLLELKALNSIDKKQLSNYLIQGFIYNILKNTEYSWLHNWKKEKYFNFTLIPKKDIIENKRYYLIISSPDKRFIEVLHNKIKDLDIITIGLAQFQLRKTKKFDPKLRFPWVTITPIVLREGKIVILKGDKYYKVFVKRLEELKKYNLIKKKEPILEEPIEISLNQIKDGWKIIDVKDRYYDFRNKSFSAFSNWLRDLKEQSLRKYNNFCGKNFYFEEAIFEGFTFYKTVSIRIRINRGEAVYIGTLWKELNVYRKLDKEEREFYKFLYDCGLGSLNSMGFGFVNTKKNSAR", "soluble on expression in E. coli": "soluble"}, {"sequence": "MGSDKIHHHHHHATAPSPDFNEARFRNDIKILSSDAFEGRAPTTAGEKLTLDYLSTAFKAAGLKGTNNGSFLQSVPMVTYNASENQAIRLGNLHPAYRKDIVLGSRHNNQGVEISNAPLVFVGYGIKAPEYDWDDYAGLDMQGKIAVILVNDPGFAAPESGKFKGKAMTYYGRWSYKFEEASRQGALGAIIIHDTAPASYPWSVIENSWTGPQQDLADASQTDSRVQVEGWMTLDTAKALFDEAGLSLDTLSQEAALTPGNHDLKQSADIAFTNSATFTDSYNLVATLPGTDRADEHILFTAHWDHIGKDDSRDGDKIYNGALDNASGVAGIVEIARQFAALDAMGFKNRRSITFIATTGEEQGLLGSRYYAANPLFPIDKTIAVLNLDSTNVFGRTKDFTIVGKGQSQLEDYLVAAAKAQGREAVAEKNPASGGFFRSDHFSFAKLGVSAAFAGGGSIPLDDATATYKAEMQQKMKGCYHNVCDEYRADWDLSGALQDLALYYDVARTLANNEHRPGYYQKSEFYPLRPAN", "soluble on expression in E. coli": "not soluble"}, {"sequence": "KELKIILLTDMHVGSLLQKDFVDYIVEEVNQKEVDMVLIGGDLVDESIEKVKSFLLPLNNLKSTHGTFYVPGNHEYYHGIEPILSFLDTLNLTILGNECVHLGGINLCGVYDYFARKRQNFAPDIDKALKKRNESKPTILLAHQPKQIRSLKESHSVDLVLSGHTHAGQIFPFSLLVKLAQTYLHGLYKHSP", "soluble on expression in E. coli": "not soluble"}, {"sequence": "MRRGMTGLKTLAQQIALIWKNDPQQFESQAVAVMDAVKNRMPGRAKINVDVFSKLELSLRTSFDLQDGGFSGSPKFFNTPALNYLLERFYETGNEEILNFIGLTLKTISIRGIHDLVNGGFFRYSTDTMWIVPHFEKMLYTQTQLMKLFSKMFMLTRDNVYRDMIYDIKRFMDENLYWPGHGYYSGMDADVDGNEGGYYKWSFQDLKVALGQDFEAFRAIFDISEGGNYMDELYGQTGDNLIYFTGSFDEYRRSIEENGSTDMLSRSIEKLREAEKKRKKPSVDKKILTDLNGLAISSLSWAYRATGDKEFLDSAVSVSEFIIKNMIGDYLLHSFFEGSASVKSSLFDYAFLIRGLIDLYTITFDQKYLEEAKKLADEAIKFLFDGKFKLSEEIDDPQIADSEVESPYATIVADLDDLSLLTEDLQYHQIADQALTSVFDAVSRFPSAFPSLEHHHHHH", "soluble on expression in E. coli": "not soluble"}, {"sequence": "MNIVSWKDANDEVAGGATTRREREVKEDQEETEVRATSGKTVIKKQPTSISSSSSSWMKSKDPRIVRVSRAFGGKDRHSKVCTLRGLRDRRVRLSVPTAIQLYDLQERLGVDQPSKAVDWLLDAAKEEIDELPPLPISPENFSIFNHHQSFLNLGQRPGQDPTQLGFKINGCVQKSTTTSREENDREKGENDVVYTNNHHVGSYGTYHNLEHHHHHHQHLSLQADYHSHQLHSLVPFPSQILVCPMTTSPTTTTIQSLFPSSSSAGSGTMETLDPRQMVSHFQMPLMGNSSSSSSQNISTLYSLLHGSSSNNGGRDIDNRMSSVQFNRTNSTTTANMSRHLGSERCTSRGSDHHM", "soluble on expression in E. coli": "soluble"}, {"sequence": "MGSDKIHHHHHHMWTGFFSKSGTGIAEERHQNRRACTDVPLLAERNSKHPDRPYGFAKYRQSGLDIYAWHGIYFFPRFPFIDIDCIRWVCAGLKAFKHYIRENGLPDLIHAHRMNYAGILAQKISQKYGIPYVVTEHSSTITRGLIRPHQWQPMEKAAAHASALLAVSRHFAHVLQHKYGCEWQYLPPTYWAEYSTDRLNKEKKTTNRISCSAPSRTFAVSKDTMSYSLPLPGRWHNARNCA", "soluble on expression in E. coli": "not soluble"}, {"sequence": "GPGSMEGISEEQRQREEAEIRERDRKRQQEKEDYERRLAEAKAEEERKRREEEQLRLEEEKRKKRQEEEWKRLGSDAIQDLPPVPPPVAEEGALDMWYLDDETSQPPLSTASLKPGRKVGAPVITMKALRELGVVLFRVSMSDFSVVRQIIKEREYKHTDEVKISQTAKDDSFLERWYQEHYTEDEQFRVVMDGSFFLDIRSKQDEWIRVHVKAGDLVVLPAGIYHRATLDEDDYVALYRGFQDAPRFVPVKRSDSRADSNRVRLAYLMSLKKGDVATQNGFL", "soluble on expression in E. coli": "soluble"}, {"sequence": "MKKGILIILLVLMVLSCGTSKKVTLPDKDIKIENETVFFKNEKYTGKINLKDKNSVSGFITFKDGHLDGPTELKNDKKQMYTKFNIVNNQFEGETVVKNADQGINMTVNYNNGKIVKLLGDYSKTVKYDITFVDGLANGWFESEGEKFVFSDGVLTLEEDGITTEVKYYVNQETGDMGMEFFINGKSAGRDEKPNKVFGMEYFRIIAISSILEENSKGKDK", "soluble on expression in E. coli": "not soluble"}, {"sequence": "MTEPKPRARRSGAAPARTRDDQVVDRRRSLLKAAVKVISKRGLTGVTINSIAAEAKCSYGVVAFHFQSKEGIIFAALDHTAAEYEAYLAQLNASQRGPAERIRHMIDTDFSRKAAGHESIALWLAFWAEAARVPSFRQRCAALRVQYNEAVAADVAELAALRGRTVEAEQVALTLNAMISGLWVENLLLPITIAEGQKRGHDASLAYLRLIFPDDF", "soluble on expression in E. coli": "not soluble"}, {"sequence": "MSLGNSYAGQLKTTRFEEVLHNSIEASLRSNNLVPRPIFSQLYLEAEQQLAALEGGSRVDNEEEEEEGEGGLETNGPPNPFQLHPLPEGCCTTDGFCQAGKDLRLVSISNEPMDVPAGFLLVGVKSPSLPDHLLVCAVDKRFLPDDNGHNALLGFSGNCVGCGKKGFCYFTEFSNHINLKLTTQPKKQKHLKYYLVRNAQGTLTKGPLICWKGSEFRSRQIPASTCSSSLFPALESTAAFPSEPVPGTNPSILMGAQQAGPASDHPSLNAAMGPAVFNGKDSPKCQQLAKNNLLALPRPSALGILSNSGPPKKRHKGWSPESPSAPDGGCPQGGGNRAKYESAGMSCVPQVGLVGPASVTFPVVASGEPVSVPDNLLKICKAKPVIFKVFVNGATQMVALGPAEEGHHHHHH", "soluble on expression in E. coli": "not soluble"}, {"sequence": "MNKDIETQRFKQQKKWQKYYKFRGQFFLMKKYSKRMIFDRRIKMTTKEKIEFIKQVTPHSDSEVEKIIKGMSDTSINRWYEIEKYRIDQELEEAVLTIYC", "soluble on expression in E. coli": "not soluble"}]}]}
